Laboratory results reported in patent US20140213531A1 (POLYPHOR, published 2014).
One block for each binder: values may come before it. Bridges are numbered along the chain shown (N, C = ends). [ ]: non-standard residue; d: D form. Nle = CCCC[C@H](N)C(=O)O; Abu = CC[C@H](N)C(=O)O

Legend:
Assay in all cases: cell-based or functional assay
[1] = biological target: T1, CathepsinG, from human neutrophils (human, UniProt P08311 21-244)
T1 sequence (looked up): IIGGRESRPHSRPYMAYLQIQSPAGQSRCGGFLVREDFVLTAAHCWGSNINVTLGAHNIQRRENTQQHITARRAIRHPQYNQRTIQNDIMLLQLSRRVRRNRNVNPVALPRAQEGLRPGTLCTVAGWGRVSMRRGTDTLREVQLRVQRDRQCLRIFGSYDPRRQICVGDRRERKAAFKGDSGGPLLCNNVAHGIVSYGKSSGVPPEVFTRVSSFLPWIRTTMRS

[2] = biological target: T2, Elastase from human neutrophils (human, UniProt P08246 30-247, limits assumed)
T2 sequence (looked up): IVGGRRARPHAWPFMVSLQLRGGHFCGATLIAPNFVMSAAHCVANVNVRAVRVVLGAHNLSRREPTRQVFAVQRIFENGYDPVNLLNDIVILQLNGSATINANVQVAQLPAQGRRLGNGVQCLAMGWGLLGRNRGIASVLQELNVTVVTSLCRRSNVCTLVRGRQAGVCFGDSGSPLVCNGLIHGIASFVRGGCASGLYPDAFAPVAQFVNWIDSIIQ

[3] = biological target: Trypsin, Iodination grade, from human pancreas (human, UniProt P07477 24-247)
Chymase, from human skin = biological target: T3, Chymase, from human skin (human, UniProt P23946 22-247)
T3 sequence (looked up): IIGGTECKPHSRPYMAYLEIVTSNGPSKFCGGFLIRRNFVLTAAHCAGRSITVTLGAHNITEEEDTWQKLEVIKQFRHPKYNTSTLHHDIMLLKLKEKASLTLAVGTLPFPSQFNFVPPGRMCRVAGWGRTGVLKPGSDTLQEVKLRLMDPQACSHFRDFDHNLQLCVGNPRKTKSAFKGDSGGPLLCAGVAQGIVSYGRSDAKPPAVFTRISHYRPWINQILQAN

B3: Example 53 (peptide)
peptide: FCTKSDPPXCS
HELM: PEPTIDE1{F.C.T.K.S.D.P.P.[Nle].C.S.[dP].P}$PEPTIDE1,PEPTIDE1,2:R3-10:R3|PEPTIDE1,PEPTIDE1,1:R1-13:R2$$$V2.0
SMILES: CCCC[C@@H]1NC(=O)[C@@H]2CCCN2C(=O)[C@@H]2CCCN2C(=O)[C@H](CC(=O)O)NC(=O)[C@H](CO)NC(=O)[C@H](CCCCN)NC(=O)[C@H]([C@@H](C)O)NC(=O)[C@@H]2CSSC[C@H](NC1=O)C(=O)N[C@@H](CO)C(=O)N1CCC[C@@H]1C(=O)N1CCC[C@H]1C(=O)N[C@@H](Cc1ccccc1)C(=O)N2
IC50 [1]: 56 nmol
IC50 [2]: > 100000 nmol
% inhibition at 100 µM [3]: 95%
% inhibition at 100 µM (Chymase, from human skin): 12.7%

B4: Example 71 (peptide)
peptide: XCTKSDPPXCR
HELM: PEPTIDE1{[O=C([C@@H](N[*:1])C1CCCCC1)[*:2]].C.T.K.S.D.P.P.[Cha].C.R.[dP].P}$PEPTIDE1,PEPTIDE1,2:R3-10:R3|PEPTIDE1,PEPTIDE1,1:R1-13:R2$$$V2.0
SMILES: C[C@@H](O)[C@@H]1NC(=O)[C@@H]2CSSC[C@H](NC(=O)[C@H](CC3CCCCC3)NC(=O)[C@@H]3CCCN3C(=O)[C@@H]3CCCN3C(=O)[C@H](CC(=O)O)NC(=O)[C@H](CO)NC(=O)[C@H](CCCCN)NC1=O)C(=O)N[C@@H](CCCNC(=N)N)C(=O)N1CCC[C@@H]1C(=O)N1CCC[C@H]1C(=O)N[C@@H](C1CCCCC1)C(=O)N2
IC50 [1]: 70 nmol

B7: Example 76 (peptide)
peptide: ICTASLPPQCY
HELM: PEPTIDE1{I.C.T.A.S.L.P.P.Q.C.Y.[dP].P}$PEPTIDE1,PEPTIDE1,2:R3-10:R3|PEPTIDE1,PEPTIDE1,1:R1-13:R2$$$V2.0
SMILES: CC[C@H](C)[C@@H]1NC(=O)[C@@H]2CCCN2C(=O)[C@H]2CCCN2C(=O)[C@H](Cc2ccc(O)cc2)NC(=O)[C@@H]2CSSC[C@H](NC1=O)C(=O)N[C@@H]([C@@H](C)O)C(=O)N[C@@H](C)C(=O)N[C@@H](CO)C(=O)N[C@@H](CC(C)C)C(=O)N1CCC[C@H]1C(=O)N1CCC[C@H]1C(=O)N[C@@H](CCC(N)=O)C(=O)N2
IC50 [2]: 71 nmol

B9: Example 78 (peptide)
peptide: cyclo([Nle]CT[Abu]SIPPQCY[dP]P)
modifications: disulfide 2-10
IC50 [2]: 29 nmol

B10: Example 79 (peptide)
peptide: XCTASXPPQCY
HELM: PEPTIDE1{[Nle].C.T.A.S.[Nle].P.P.Q.C.Y.[dP].P}$PEPTIDE1,PEPTIDE1,2:R3-10:R3|PEPTIDE1,PEPTIDE1,1:R1-13:R2$$$V2.0
SMILES: CCCC[C@@H]1NC(=O)[C@@H]2CCCN2C(=O)[C@H]2CCCN2C(=O)[C@H](Cc2ccc(O)cc2)NC(=O)[C@@H]2CSSC[C@H](NC1=O)C(=O)N[C@@H]([C@@H](C)O)C(=O)N[C@@H](C)C(=O)N[C@@H](CO)C(=O)N[C@@H](CCCC)C(=O)N1CCC[C@H]1C(=O)N1CCC[C@H]1C(=O)N[C@@H](CCC(N)=O)C(=O)N2
IC50 [2]: 66 nmol

B11: Example 80 (peptide)
peptide: XCTASXPPQCY
HELM: PEPTIDE1{[Nle].C.T.A.S.[CCCCCC[C@H](N[*:1])C(=O)[*:2]].P.P.Q.C.Y.[dP].P}$PEPTIDE1,PEPTIDE1,2:R3-10:R3|PEPTIDE1,PEPTIDE1,1:R1-13:R2$$$V2.0
SMILES: CCCCCC[C@@H]1NC(=O)[C@H](CO)NC(=O)[C@H](C)NC(=O)[C@H]([C@@H](C)O)NC(=O)[C@@H]2CSSC[C@H](NC(=O)[C@H](CCC(N)=O)NC(=O)[C@@H]3CCCN3C(=O)[C@@H]3CCCN3C1=O)C(=O)N[C@@H](Cc1ccc(O)cc1)C(=O)N1CCC[C@@H]1C(=O)N1CCC[C@H]1C(=O)N[C@@H](CCCC)C(=O)N2
IC50 [2]: 35 nmol

B14: Example 10 (peptide)
peptide: XCTKSDPPICS
HELM: PEPTIDE1{[Nle].C.T.K.S.D.P.P.I.C.S.[dP].P}$PEPTIDE1,PEPTIDE1,2:R3-10:R3|PEPTIDE1,PEPTIDE1,1:R1-13:R2$$$V2.0
SMILES: CCCC[C@@H]1NC(=O)[C@@H]2CCCN2C(=O)[C@H]2CCCN2C(=O)[C@H](CO)NC(=O)[C@@H]2CSSC[C@H](NC1=O)C(=O)N[C@@H]([C@@H](C)O)C(=O)N[C@@H](CCCCN)C(=O)N[C@@H](CO)C(=O)N[C@@H](CC(=O)O)C(=O)N1CCC[C@H]1C(=O)N1CCC[C@H]1C(=O)N[C@@H]([C@@H](C)CC)C(=O)N2
IC50 [1]: 75 nmol
% inhibition at 100 µM [2]: 0.3%
% inhibition at 100 µM [3]: 89.9%
% inhibition at 100 µM (Chymase, from human skin): 9.4%

Further lines, results first:

IC50 [1]: 102 nmol
% inhibition at 100 µM [2]: 3.2%
% inhibition at 100 µM [3]: 89.3%
% inhibition at 100 µM (Chymase, from human skin): 10%
B1: Example 25 (peptide)
peptide: FCTKXDPPICS
HELM: PEPTIDE1{F.C.T.K.[NC[C@H](N[*:1])C(=O)[*:2]].D.P.P.I.C.S.[dP].P}$PEPTIDE1,PEPTIDE1,2:R3-10:R3|PEPTIDE1,PEPTIDE1,1:R1-13:R2$$$V2.0
SMILES: CC[C@H](C)[C@@H]1NC(=O)[C@@H]2CCCN2C(=O)[C@@H]2CCCN2C(=O)[C@H](CC(=O)O)NC(=O)[C@H](CN)NC(=O)[C@H](CCCCN)NC(=O)[C@H]([C@@H](C)O)NC(=O)[C@@H]2CSSC[C@H](NC1=O)C(=O)N[C@@H](CO)C(=O)N1CCC[C@@H]1C(=O)N1CCC[C@H]1C(=O)N[C@@H](Cc1ccccc1)C(=O)N2

IC50 [1]: 91 nmol
IC50 [2]: > 100000 nmol
B2: Example 51 (peptide)
peptide: cyclo(FCTKSDPPICS[dP]L)
modifications: disulfide 2-10

IC50 [1]: 87 nmol
B5: Example 72 (peptide)
peptide: cyclo(FCTKSDPPICS[dT]P)
modifications: disulfide 2-10

IC50 [1]: 91 nmol
IC50 [2]: > 100000 nmol
% inhibition at 100 µM [3]: 86%
B6: Example 74 (peptide)
peptide: cyclo(FCTKSDPPICS[dP]L)
modifications: disulfide 2-10

IC50 [2]: 68 nmol
B8: Example 77 (peptide)
peptide: XCTTSIPPYCY
HELM: PEPTIDE1{[Nle].C.T.T.S.I.P.P.Y.C.Y.[dP].P}$PEPTIDE1,PEPTIDE1,2:R3-10:R3|PEPTIDE1,PEPTIDE1,1:R1-13:R2$$$V2.0
SMILES: CCCC[C@@H]1NC(=O)[C@@H]2CCCN2C(=O)[C@H]2CCCN2C(=O)[C@H](Cc2ccc(O)cc2)NC(=O)[C@@H]2CSSC[C@H](NC1=O)C(=O)N[C@@H]([C@@H](C)O)C(=O)N[C@@H]([C@@H](C)O)C(=O)N[C@@H](CO)C(=O)N[C@@H]([C@@H](C)CC)C(=O)N1CCC[C@H]1C(=O)N1CCC[C@H]1C(=O)N[C@@H](Cc1ccc(O)cc1)C(=O)N2

IC50 [2]: 43 nmol
B12: Example 83 (peptide)
peptide: XCTASXPPQCY
HELM: PEPTIDE1{[Nle].C.T.A.S.[CC(C)CC[C@H](N[*:1])C(=O)[*:2]].P.P.Q.C.Y.[dP].P}$PEPTIDE1,PEPTIDE1,2:R3-10:R3|PEPTIDE1,PEPTIDE1,1:R1-13:R2$$$V2.0
SMILES: CCCC[C@@H]1NC(=O)[C@@H]2CCCN2C(=O)[C@H]2CCCN2C(=O)[C@H](Cc2ccc(O)cc2)NC(=O)[C@@H]2CSSC[C@H](NC1=O)C(=O)N[C@@H]([C@@H](C)O)C(=O)N[C@@H](C)C(=O)N[C@@H](CO)C(=O)N[C@@H](CCC(C)C)C(=O)N1CCC[C@H]1C(=O)N1CCC[C@H]1C(=O)N[C@@H](CCC(N)=O)C(=O)N2

IC50 [1]: 105 nmol
% inhibition at 100 µM [2]: 4.1%
% inhibition at 100 µM [3]: 88.1%
B13: Example 9 (peptide)
peptide: XCTKSDPPICS
HELM: PEPTIDE1{[Nc1ccc(C[C@H](N[*:1])C(=O)[*:2])cc1].C.T.K.S.D.P.P.I.C.S.[dP].P}$PEPTIDE1,PEPTIDE1,2:R3-10:R3|PEPTIDE1,PEPTIDE1,1:R1-13:R2$$$V2.0
SMILES: CC[C@H](C)[C@@H]1NC(=O)[C@@H]2CCCN2C(=O)[C@@H]2CCCN2C(=O)[C@H](CC(=O)O)NC(=O)[C@H](CO)NC(=O)[C@H](CCCCN)NC(=O)[C@H]([C@@H](C)O)NC(=O)[C@@H]2CSSC[C@H](NC1=O)C(=O)N[C@@H](CO)C(=O)N1CCC[C@@H]1C(=O)N1CCC[C@H]1C(=O)N[C@@H](Cc1ccc(N)cc1)C(=O)N2

IC50 [1]: 100 nmol
% inhibition at 100 µM [2]: 8.2%
% inhibition at 100 µM [3]: 95%
% inhibition at 100 µM (Chymase, from human skin): 19.9%
B15: Example 13 (peptide)
peptide: XCTKSDPPICR
HELM: PEPTIDE1{[O=C([C@H](Cc1ccccc1Cl)N[*:1])[*:2]].C.T.K.S.D.P.P.I.C.R.[dP].P}$PEPTIDE1,PEPTIDE1,2:R3-10:R3|PEPTIDE1,PEPTIDE1,1:R1-13:R2$$$V2.0
SMILES: CC[C@H](C)[C@@H]1NC(=O)[C@@H]2CCCN2C(=O)[C@@H]2CCCN2C(=O)[C@H](CC(=O)O)NC(=O)[C@H](CO)NC(=O)[C@H](CCCCN)NC(=O)[C@H]([C@@H](C)O)NC(=O)[C@@H]2CSSC[C@H](NC1=O)C(=O)N[C@@H](CCCNC(=N)N)C(=O)N1CCC[C@@H]1C(=O)N1CCC[C@H]1C(=O)N[C@@H](Cc1ccccc1Cl)C(=O)N2
